Laboratory results reported in patent US20050106100.
Several values for one entry are separate records, joined by “and”; a condition that tells them apart may be missing. Equal values may be shown once.

How the values were obtained:
[1] = target: T1, Ac-P-Cha-G˜Hphe-Cit-L-Ahxh-Ac[C14] (not fully specified)
T1 chain: PXGXXL

[2] = target: T2, Ac-P-Cha-G˜LL-Ahxh-Ac[C14] (not fully specified)
T2 chain: PXGLL

[3] = target: T3, Ac-P-Cha-G˜Smc-HA-Ahxh-Hynic (not fully specified)
T3 chain: PXGXHA

[4] = target: T4, Ac-P-Cit-Aib˜Hphe-LA-Ahxh-Hynic (not fully specified)
T4 chain: PXXXLA

[5] = target: T5, Ac-P-Cit-Cit-LTA-Ahxh-Hynic
T5 chain: PXXLTA

[6] = target: T6, Ac-P-Cit-G˜Chg-LA-Ahxh-Hynic (not fully specified)
T6 chain: PXGXLA

[7] = target: T7, Ac-P-DArg-R˜LTA-Ahxh-Hynic (not fully specified)
T7 chain: PRRLTA

[8] = target: T8, Ac-P-NLeu-G˜LL-Ahxh-Ac[C14] (not fully specified)
T8 chain: PXGLL

[9] = target: T9, Ac-P-NMeArg-R˜LTA-Ambh-Hynic (not fully specified)
T9 chain: PRRLTA

[10] = target: T10, Ac-PHG˜Hphe-L-Ahxh-Hynic (not fully specified)
T10 chain: PHGXL

[11] = target: T11, Ac-PL-DAla˜LL-Ahxh-Hynic (not fully specified)
T11 chain: PLALL

[12] = target: T12, Ac-PL-NLys-LL-dLeu-Ahxh-Ac[C14]
T12 chain: PLXLLL

[13] = target: T13, Ac-PL-NLys˜Ahp-YL-Ahxh-Ac[C14] (not fully specified)
T13 chain: PLXXYL

[14] = target: T14, Ac-PL-NLys˜LL-Ahxh-Ac[C14] (not fully specified)
T14 chain: PLXLL

[15] = target: T15, Ac-PL-Sar˜LL-Ahxh-Ac[C14] (not fully specified)
T15 chain: PLXLL

[16] = target: T16, Ac-PLG-LYV-Ahxh-Ac[C14]
T16 chain: PLGLYV

[17] = target: T17, Ac-PLG˜Cit-LA-Ahxh-Ac[C14] (not fully specified)
T17 chain: PLGXLA

[18] = target: T18, Ac-PLG˜Hphe-KL-Ahxh-Hynic
T18 chain: PLGXKL

[19] = target: T19, Ac-PLG˜Hphe-OL-Ambh-Hynic
T19 chain: PLGXXL

[20] = target: T20, Ac-PLG˜Hphe-OLEE-Ahx-Hynic
T20 chain: PLGXXLEE

[21] = target: T21, Ac-PLG˜Hphe-OLR-Ahxh-Hynic
T21 chain: PLGXXLR

[22] = target: T22, Ac-PLG˜Hphe-RL-Ahxh-Hynic
T22 chain: PLGXRL

[23] = target: T23, Ac-PLG˜Hphe-RLA-Ahxh-Hynic
T23 chain: PLGXRLA

[24] = target: T24, Ac-PLG˜Hphe-RLT-Ahxh-Hynic
T24 chain: PLGXRLT

[25] = target: T25, Ac-PLG˜Hphe-YLR-Ahxh-Hynic
T25 chain: PLGXYLR

[26] = target: T26, Ac-PLG˜LAL-Ahxh-Hynic
T26 chain: PLGLAL

[27] = target: T27, Ac-PLG˜LL-Ahxh-Ac[C14] (not fully specified)
T27 chain: PLGLL

[28] = target: T28, Ac-PLG˜LLA-Ahxh-Hynic (not fully specified)
T28 chain: PLGLLA

[29] = target: T29, Ac-PLG˜LR-Ahxh-Hynic (not fully specified)
T29 chain: PLGLR

[30] = target: T30, Ac-PLG˜LRL-Ahxh-Hynic (not fully specified)
T30 chain: PLGLRL

[31] = target: T31, Ac-PLG˜LWA-Ahxh-Hynic (not fully specified)
T31 chain: PLGLWA

[32] = target: T32, Ac-PLG˜LYA-Ahxh-Hynic (not fully specified)
T32 chain: PLGLYA

[33] = target: T33, Ac-PLG˜LYL-Ahxh-Hynic (not fully specified)
T33 chain: PLGLYL

[34] = target: T34, Ac-PLG˜LYQ-Ahxh-Ac[C14] (not fully specified)
T34 chain: PLGLYQ

[35] = target: T35, Ac-PLG˜LYS-Ahxh-Ac[C14] (not fully specified)
T35 chain: PLGLYS

[36] = target: T36, Ac-PLG˜LYT-Ahxh-Ac[C14] (not fully specified)
T36 chain: PLGLYT

[37] = target: T37, Ac-POG˜Hphe-L-Nle-Ahxh-Hynic
T37 chain: PXGXLX

[38] = target: T38, Ac-POG˜Hphe-LA-Ahxh-Hynic
T38 chain: PXGXLA

[39] = target: T39, Ac-POG˜Hphe-Smc-T-Ahxh-Hynic
T39 chain: PXGXXT

[40] = target: T40, Ac-PRG˜Hphe-LA-Ahxh-Hynic
T40 chain: PRGXLA

[41] = target: T41, Ac-PRG˜LLT-Ahxh-Hynic
T41 chain: PRGLLT

[42] = target: T42, Ac-PRQ˜IT-Ahxh-Hynic
T42 chain: PRQIT

[43] = target: T43, Ac-PRQ˜ITA-Ahxh-Hynic
T43 chain: PRQITA

[44] = target: T44, Ac-PRR˜Cha-TA-Ambh-Hynic
T44 chain: PRRXTA

[45] = target: T45, Ac-PRR˜LTA-Ahxh-Hynic
T45 chain: PRRLTA

[46] = target: T46, Ac-VRW˜LTA-Ahxh-Hynic (not fully specified)
T46 chain: VRWLTA

[47] = target: T47, H-γ-DGlu-PLG-LYT-Ahxh-Hynic (not fully specified)
T47 chain: EPLGLYT

[48] = target: T48, Hynic-Ahx-PLG˜Hphe-OLEE-OH
T48 chain: XPLGXXLEE

[49] = target: T49, Hynic-ff-Ahx-PLG˜Hphe-OLEE-OH
T49 chain: FFXPLGXXLEE

[50] = target: T50, Hynic-fff-Ahx-PLG˜Hphe-OLEE-OH
T50 chain: FFFXPLGXXLEE

[51] = target: T51, NLys-PLG˜Hphe-YL-Ambh-Hynic
T51 chain: XPLGXYL

[52] = target: T52, Piv-PLG˜LYT-Ahxh-Hynic
T52 chain: PLGLYT

B1: MMP-2 (protein)
chain: APSPIIKFPGDVAPKTDKELAVQYLNTFYGCPKESCNLFVLKDTLKKMQKFFGLPQTGDLDQNTIETMRKPRCGNPDVANYNFFPRKPKWDKNQITYRIIGYTPDLDPETVDDAFARAFQVWSDVTPLRFSRIHDGEADIMINFGRWEHGDGYPFDGKDGLLAHAFAPGTGVGGDSHFDDDELWTLGEGQVVRVKYGNADGEYCKFPFLFNGKEYNSCTDTGRSDGFLWCSTTYNFEKDGKYGFCPHEALFTMGGNAEGQPCKFPFRFQGTSYDSCTTEGRTDGYRWCGTTEDYDRDKKYGFCPETAMSTVGGNSEGAPCVFPFTFLGNKYESCTSAGRSDGKMWCATTANYDDDRKWGFCPDQGYSLFLVAAHEFGHAMGLEHSQDPGALMAPIYTYTKNFRLSQDDIKGIQELYGASPDIDLGTGPTPTLGPVTPEICKQDIVFDGIAQIRGEIFFFKDRFIWRTVTPRDKPMGPLLVATFWPELPEKIDAVYEAPQEEKAVFFAGNEYWIYSASTLERGYPKPLTSLGLPPDVQRVDAAFNWSKNKKTYIFAGDKFWRYNEVKKKMDPGFPKLIADAWNAIPDNLDAVVDLQGGGHSYFFKGAYYLKLENQSLKSVKFGSIKSDWLGC
Kcat/Km [1]: 22600 M⁻¹ s⁻¹ | Kcat/Km [2]: 24700 M⁻¹ s⁻¹ | Kcat/Km [3]: 146000 M⁻¹ s⁻¹ | Kcat/Km [4]: 275 M⁻¹ s⁻¹ | Kcat/Km [5]: 27300 M⁻¹ s⁻¹ | Kcat/Km [6]: 14400 M⁻¹ s⁻¹ | Kcat/Km [7]: 6880 M⁻¹ s⁻¹ | Kcat/Km [8]: 0 M⁻¹ s⁻¹ | Kcat/Km [9]: 879 M⁻¹ s⁻¹ | Kcat/Km [10]: 22100 M⁻¹ s⁻¹ | Kcat/Km [11]: 0 M⁻¹ s⁻¹ | Kcat/Km [12]: 0 M⁻¹ s⁻¹ | Kcat/Km [13]: 0 M⁻¹ s⁻¹ | Kcat/Km [14]: 180000 M⁻¹ s⁻¹ | Kcat/Km [15]: 111000 M⁻¹ s⁻¹ | Kcat/Km [16]: 396000 M⁻¹ s⁻¹ | Kcat/Km [17]: 16300 M⁻¹ s⁻¹ | Kcat/Km [18]: 78900 M⁻¹ s⁻¹ | Kcat/Km [19]: 42700 M⁻¹ s⁻¹ | Kcat/Km [20]: 8020 M⁻¹ s⁻¹ | Kcat/Km [21]: 46600 M⁻¹ s⁻¹ | Kcat/Km [22]: 242000 M⁻¹ s⁻¹ | Kcat/Km [23]: 64000 M⁻¹ s⁻¹ | Kcat/Km [24]: 119000 M⁻¹ s⁻¹ | Kcat/Km [25]: 364000 M⁻¹ s⁻¹ | Kcat/Km [26]: 4380 M⁻¹ s⁻¹ | Kcat/Km [27]: 148000 M⁻¹ s⁻¹ | Kcat/Km [28]: 387000 M⁻¹ s⁻¹ | Kcat/Km [29]: 162000 M⁻¹ s⁻¹ | Kcat/Km [30]: 182000 M⁻¹ s⁻¹ | Kcat/Km [31]: > 500000 M⁻¹ s⁻¹ | Kcat/Km [32]: 404000 M⁻¹ s⁻¹ | Kcat/Km [33]: 65300 M⁻¹ s⁻¹ | Kcat/Km [34]: 439000 M⁻¹ s⁻¹ | Kcat/Km [35]: > 500000 M⁻¹ s⁻¹ | Kcat/Km [36]: 413000 M⁻¹ s⁻¹ | Kcat/Km [37]: 401000 M⁻¹ s⁻¹ | Kcat/Km [38]: > 500000 M⁻¹ s⁻¹ | Kcat/Km [39]: > 500000 M⁻¹ s⁻¹ | Kcat/Km [40]: > 500000 M⁻¹ s⁻¹ | Kcat/Km [41]: 98600 M⁻¹ s⁻¹ | Kcat/Km [42]: 898 M⁻¹ s⁻¹ | Kcat/Km [43]: 2400 M⁻¹ s⁻¹ | Kcat/Km [44]: 0 M⁻¹ s⁻¹ | Kcat/Km [45]: 10100 M⁻¹ s⁻¹ | Kcat/Km [46]: 14400 M⁻¹ s⁻¹ | Kcat/Km [47]: 153000 M⁻¹ s⁻¹ | Kcat/Km [48]: 83900 M⁻¹ s⁻¹ and 42500 M⁻¹ s⁻¹ | Kcat/Km [49]: 81600 M⁻¹ s⁻¹ | Kcat/Km [50]: 11600 M⁻¹ s⁻¹ | Kcat/Km [51]: 121000 M⁻¹ s⁻¹ | Kcat/Km [52]: 569000 M⁻¹ s⁻¹
